Patent publication US20220288223

Key:
[1] = system: RACPP with substrate RLQLK(Ac)L
[2] = system: RACPP with substrate TGRAAA
[3] = system: RACPP with substrate PLGC(me)AG
[4] = system: RACPP with substrate TIAHLA
[5] = system: RACPP with substrate GVAYSGA
[6] = system: RACPP with substrate YGRAAA
[7] = system: RACPP with substrate PLGLEEA

Sequence of MMP-9 (chain, as listed by the source): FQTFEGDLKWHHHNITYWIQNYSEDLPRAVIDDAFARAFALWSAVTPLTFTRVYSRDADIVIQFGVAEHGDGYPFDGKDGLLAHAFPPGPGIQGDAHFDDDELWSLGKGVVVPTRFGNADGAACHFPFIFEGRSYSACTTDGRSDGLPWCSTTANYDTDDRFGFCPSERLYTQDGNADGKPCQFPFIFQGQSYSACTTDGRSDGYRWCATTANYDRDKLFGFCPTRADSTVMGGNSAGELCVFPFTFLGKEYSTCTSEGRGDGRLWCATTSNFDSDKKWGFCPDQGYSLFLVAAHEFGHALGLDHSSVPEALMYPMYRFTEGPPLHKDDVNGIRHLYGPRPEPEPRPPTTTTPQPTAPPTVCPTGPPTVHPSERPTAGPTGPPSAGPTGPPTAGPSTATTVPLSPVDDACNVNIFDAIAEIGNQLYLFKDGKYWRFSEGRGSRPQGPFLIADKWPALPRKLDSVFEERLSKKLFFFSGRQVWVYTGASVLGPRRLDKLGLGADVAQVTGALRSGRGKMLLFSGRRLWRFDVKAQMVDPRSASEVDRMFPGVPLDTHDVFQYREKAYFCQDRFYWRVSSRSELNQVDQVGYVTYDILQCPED

Substance | Kcat/Km [1] | Kcat/Km [2] | Kcat/Km [3] | Kcat/Km [4] | Kcat/Km [5] | Kcat/Km [6] | Kcat/Km [7]
Elastase | 13400 | 349 | 4000 | 18200 | 4550 | 943 | –
MMP-9 | – | – | 13500 | – | – | – | 1480
